No end group written: not given here. *: point of attachment. sulfate = O=S(=O)(O)*
How the values were obtained:
[1] = system: Wnt induced alkaline phosphatase activity; assay: Wnt 3a induced alkaline phosphatase activity in 10T1/2 cells; type: cell-based; conditions: 24 hours, vs untreated sclerostin, highest level of sclerostin input, FIG. 3
Method: Growing cultures of 10T1/2 cells were washed with PBS and trypsinized for 5 minutes. Cells were resuspended at a concentration of 6×10^5 cells/ml and 10 μl were seeded into individual wells of a Costar 96 well plate (Corning, Inc.). Wnt 3a and either the untreated sclerostin or the sclerostin from Example 1 were added and the plates were incubated at 37° C. for 24 hours. 50 μl of universal lysis buffer (from the Luciferase Reporter Gene Assay, Roche Applied Science, Indianapolis, Ind.) was added to each well at ambient temperature for 5 minutes. Detection of alkaline phosphatase was measured by the addition of 50 μl of ready-to-use CPSD with Sapphire Enhancer (Applied Biosystems) followed by an incubation at ambient temperature for 25 minutes.

[2] = target: T1, LRP5 extracellular domains 1 and 2 fused to alkaline phosphatase (Homo sapiens, UniProt O75197); assay: Binding of AlkPhos-LRP5 to plate-coated sclerostin; conditions: TPST-1-treated vs untreated recombinant sclerostin; FIG. 2
T1 construct: expresses LRP5 extracellular domains 1 and 2 fused to alkaline phosphatase; made in house; host or cells: 293T cells, transfected; concentrated conditioned medium
T1 sequence (O75197 32-641 limits assumed): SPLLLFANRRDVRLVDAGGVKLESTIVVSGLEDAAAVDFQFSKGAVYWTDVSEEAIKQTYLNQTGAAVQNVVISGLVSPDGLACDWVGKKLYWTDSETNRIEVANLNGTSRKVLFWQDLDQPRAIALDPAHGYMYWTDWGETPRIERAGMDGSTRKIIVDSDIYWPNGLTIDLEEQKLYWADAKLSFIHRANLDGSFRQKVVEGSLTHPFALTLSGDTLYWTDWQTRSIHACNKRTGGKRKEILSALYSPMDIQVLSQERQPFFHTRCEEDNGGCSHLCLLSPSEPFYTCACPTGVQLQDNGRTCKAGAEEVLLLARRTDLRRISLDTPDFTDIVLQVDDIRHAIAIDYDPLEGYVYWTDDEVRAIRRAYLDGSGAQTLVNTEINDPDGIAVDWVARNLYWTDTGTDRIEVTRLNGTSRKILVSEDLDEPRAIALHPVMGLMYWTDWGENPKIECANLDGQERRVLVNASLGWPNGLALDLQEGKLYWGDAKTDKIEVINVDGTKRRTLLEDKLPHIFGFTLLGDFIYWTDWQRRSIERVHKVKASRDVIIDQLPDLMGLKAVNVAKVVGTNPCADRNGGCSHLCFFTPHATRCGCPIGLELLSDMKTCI

sclerostin-LRP binding = target: T2, sclerostin-LRP binding (Homo sapiens, UniProt O75197); assay: Sclerostin binding to LRP in the presence of peptides; conditions: 667 μM peptide concentration; FIG. 12
T2 construct: expresses LRP5 extracellular domains 1 and 2 fused to alkaline phosphatase; made in house; host or cells: LRP5R1/2-AP from transfected 293T cells (conditioned medium)
T2 sequence (O75197 32-641 limits assumed): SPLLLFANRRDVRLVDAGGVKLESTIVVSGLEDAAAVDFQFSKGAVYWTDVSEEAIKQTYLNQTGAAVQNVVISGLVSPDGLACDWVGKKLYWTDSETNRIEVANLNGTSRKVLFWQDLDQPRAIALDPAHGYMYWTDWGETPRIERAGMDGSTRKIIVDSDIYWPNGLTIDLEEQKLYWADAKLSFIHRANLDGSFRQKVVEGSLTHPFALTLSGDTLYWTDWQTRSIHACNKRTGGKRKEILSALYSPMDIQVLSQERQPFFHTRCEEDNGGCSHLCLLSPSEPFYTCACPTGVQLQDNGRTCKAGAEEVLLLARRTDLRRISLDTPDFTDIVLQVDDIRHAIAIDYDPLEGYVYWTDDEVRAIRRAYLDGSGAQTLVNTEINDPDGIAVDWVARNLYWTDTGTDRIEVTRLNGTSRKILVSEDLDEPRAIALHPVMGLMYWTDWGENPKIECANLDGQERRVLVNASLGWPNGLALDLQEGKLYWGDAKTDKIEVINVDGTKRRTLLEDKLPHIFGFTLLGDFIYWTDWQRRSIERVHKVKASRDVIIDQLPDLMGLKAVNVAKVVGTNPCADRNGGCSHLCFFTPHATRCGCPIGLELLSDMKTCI
Method: Various amounts of unmodified sclerostin or the in vitro treated sclerostin from Example 1 were diluted into 80 μl of TBST buffer and added to individual wells of 96 well plates. After overnight incubation, unbound proteins were removed after which point the coated plates were blocked with 3% nonfat milk in PBS. The plates were than decanted and 0.5×LRP5R1/2AP conditioned medium was added to the plates. After 2.5 hours, the conditioned medium was removed and the 96 well plates were washed five times for three minutes with TBST. The alkaline phosphatase activity in each well was then determined using the Tropix luminescence assay kit (Invitrogen, Carlsbad, Calif.).
Sclerostin binding to LRP in the presence or absence of the sulfated or unsulfated peptides, at 667 μM peptide concentration, was tested using the binding assay essentially as described in Example 3.

Wnt signaling = assay: Cell-based luciferase assay using Wnt reporter cells (Dkk1 inhibition of Wnt signaling); conditions: Dkk1 from insect cells untreated (sulfated) vs chlorate treated (unsulfated); FIG. 10
Method: These four Dkk1 preparations were used at three concentrations in a cell-based luciferase assay using the Wnt reporter cells essentially as described in U.S. Patent Publication 2006/0198791 to determine the effect of sulfation on the ability of Dkk1 to inhibit Wnt signaling. Briefly, the cells were seeded in 96-well microtiter plates at 2×10^5 cells per well, in 50 μl assay medium. After incubation at 37° C. in a 5% CO2 atmosphere overnight, 50 μl DMEM was added to each well. Wnt3a was then added, to a final concentration of 300 ng/ml, followed by addition of either buffer, sulfated Dkk1 or unsulfated Dkk1, where Dkk1 was added to a final concentration of 0.4, 0.133 or 0.044 μg/ml. The plates were then incubated at 37° C. in a 5% CO2 atmosphere for 6 h. Luciferase substrate was then added and chemiluminescence was measured. Each treatment was performed in duplicate.

## sclerostin treated in vitro with TPST: human sclerostin (R&D Systems) sulfated in vitro with human TPST1 and PAPS
[1]
  blockage of Wnt induced alkaline phosphatase activity: significantly (P=0.006) more efficient blockage of Wnt induced alkaline phosphate activity

## mouse versions of sclerostin: mouse sclerostin, TPST-treated compared with untreated
[2]
  amount of AlkPhos-LRP5 bound to the plates: essentially similar results

## PRN8830: sulfated P43, sequence of sclerostin amino acids 37-52 where 43 is the sulfation site (HPELGEY(sulfate)PEPPPELEC-NH2)
sclerostin-LRP binding
  inhibition of sclerostin-LRP binding: inhibition of sclerostin-LRP binding

## H-P-E-L-G-E-Y-P-E-P-P-P-E-L-E-C-NH2 (H-HPELGEYPEPPPELEC-NH2) [PRN8829]
sclerostin-LRP binding
  inhibition of sclerostin-LRP binding: inhibition of sclerostin-LRP binding

## H-C-R-S-A-K-A-N-Q-A-E-L-E-N-A-Y-OH (H-HCRSAKANQAELENAY-OH) [PRN8831]
sclerostin-LRP binding
  inhibition of sclerostin-LRP binding: inhibition of sclerostin-LRP binding

B1: sulfated Dkk1: Dkk1 prepared in insect cells untreated with chlorate (protein, UniProt O94907 32-266, looked up)
Dickkopf-related protein 1: TLNSVLNSNAIKNLPPPLGGAAGHPGSAVSAAPGILYPGGNKYQTIDNYQPYPCAEDEECGTDEYCASPTRGGDAGVQICLACRKRRKRCMRHAMCCPGNYCKNGICVSSDQNHFRGEIEETITESFGNDHSTLDGYSRRTTLSSKMYHTKGQEGSVCLRSSDCASGLCCARHFWSKICKPVLKEGQVCTKHRRKGSHGLEIFQRCYCGEGLSCRIQKDHHQASNSSRLHTCQRH
modifications: sulfated, insect cell-expressed
notes: Dkk1 prepared in insect cells untreated with chlorate
Wnt signaling
  inhibition of Wnt activity: greater inhibition of Wnt activity

From patent publication US9403882B2, “Sulfation of Wnt pathway proteins” (priority 2010, dated 2016)
